Assay results from US20190083587A1 (Novo Nordisk, published 2019).
The star is where a group is joined. Biotin = O=C1N[C@H]2[C@H](CS[C@H]2CCCCC(=O)*)N1; AEEA = NCCOCCOCC(=O)O

Columns and labels:
[1] = target: T1, biotinylated 16 mer peptide 37 from the stalk region of hTLT-1 (SMILES …); assay: peptide-walking ELISA on streptavidin plate, triple determination
T1 peptide: {Biotin-AEEA}-EEETHKIGSLAENAFS-NH2
Method: (§1) The peptide walking ELISA defined the minimal binding region of the peptide. This was established by coating biotinylated peptides with one residue frameshift in the stalk region of TLT-1 in streptavidin plates followed by binding of the antibody of interest (mAb0061). A secondary antibody was added for detection and binding was measured at 450 nm. Positive control: binding to biotinylated TLT-1.

[2] = target: T2, biotinylated 20 mer peptide 13 from stalk region of TLT-1 (N-terminal bio-Oeg (biotin, 8-amino-3,6-dioxaoctanoic acid spacer)); assay: as above
T2 construct: also called B 1
T2 peptide: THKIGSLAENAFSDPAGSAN
Method: as §1

[3] = target: T3, biotinylated 20 mer peptide 10 from stalk region of TLT-1 (N-terminal bio-Oeg (biotin, 8-amino-3,6-dioxaoctanoic acid spacer)); assay: as above
T3 construct: also called A10
T3 peptide: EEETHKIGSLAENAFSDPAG
Method: as §1

[4] = target: T4, biotinylated 20 mer peptide 12 from stalk region of TLT-1 (N-terminal bio-Oeg (biotin, 8-amino-3,6-dioxaoctanoic acid spacer)); assay: as above
T4 construct: also called A12
T4 peptide: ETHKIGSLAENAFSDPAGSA
Method: as §1

[5] = target: T5, biotinylated 20 mer peptide 11 from stalk region of TLT-1 (N-terminal bio-Oeg (biotin, 8-amino-3,6-dioxaoctanoic acid spacer)); assay: as above
T5 construct: also called A11
T5 peptide: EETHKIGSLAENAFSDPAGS
Method: as §1

[6] = target: T6, biotinylated 16 mer peptide 38 from the stalk region of hTLT-1 (SMILES …); assay: as above
T6 construct: also called D 2
T6 peptide: {Biotin-AEEA}-EETHKIGSLAENAFSD-NH2
Method: as §1

[7] = target: T7, biotinylated 16 mer peptide 41 from the stalk region of hTLT-1 (SMILES …); assay: as above
T7 construct: also called D 5
T7 peptide: {Biotin-AEEA}-HKIGSLAENAFSDPAG-NH2
Method: as §1

[8] = target: T8, biotinylated 16 mer peptide 39 from the stalk region of hTLT-1 (SMILES …); assay: as above
T8 construct: also called D 3
T8 peptide: {Biotin-AEEA}-ETHKIGSLAENAFSDP-NH2
Method: as §1

[9] = target: T9, biotinylated 16 mer peptide 40 from the stalk region of hTLT-1 (SMILES …); assay: as above
T9 construct: also called D 4
T9 peptide: {Biotin-AEEA}-THKIGSLAENAFSDPA-NH2
Method: as §1

[10] = target: T10, biotinylated 20 mer peptide 6 from stalk region of TLT-1 (N-terminal bio-Oeg (biotin, 8-amino-3,6-dioxaoctanoic acid spacer)); assay: as above
T10 construct: also called A 6
T10 peptide: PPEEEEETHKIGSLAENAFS
Method: as §1

[11] = target: T11, biotinylated 20 mer peptide 8 from stalk region of TLT-1 (N-terminal bio-Oeg (biotin, 8-amino-3,6-dioxaoctanoic acid spacer)); assay: as above
T11 construct: also called A 8
T11 peptide: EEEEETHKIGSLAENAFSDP
Method: as §1

[12] = target: T12, biotinylated 20 mer peptide 14 from stalk region of TLT-1 (N-terminal bio-Oeg (biotin, 8-amino-3,6-dioxaoctanoic acid spacer)); assay: as above
T12 construct: also called B 2
T12 peptide: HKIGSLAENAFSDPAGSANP
Method: as §1

[13] = target: T13, biotinylated 16 mer peptide 42 from the stalk region of hTLT-1 (SMILES …); assay: as above
T13 construct: also called D 6
T13 peptide: {Biotin-AEEA}-KIGSLAENAFSDPAGS-NH2
Method: as §1

[14] = target: T14, biotinylated 20 mer peptide 15 from stalk region of TLT-1 (N-terminal bio-Oeg (biotin, 8-amino-3,6-dioxaoctanoic acid spacer)); assay: as above
T14 construct: also called B 3
T14 peptide: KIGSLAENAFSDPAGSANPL
Method: as §1

[15] = target: T15, biotinylated 20 mer peptide 7 from stalk region of TLT-1 (N-terminal bio-Oeg (biotin, 8-amino-3,6-dioxaoctanoic acid spacer)); assay: as above
T15 construct: also called A 7
T15 peptide: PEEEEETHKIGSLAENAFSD
Method: as §1

[16] = target: T16, biotinylated 20 mer peptide 5 from stalk region of TLT-1 (N-terminal bio-Oeg (biotin, 8-amino-3,6-dioxaoctanoic acid spacer)); assay: as above
T16 construct: also called A 5
T16 peptide: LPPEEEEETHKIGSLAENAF
Method: as §1

[17] = target: T17, biotinylated 16 mer peptide 36 from the stalk region of hTLT-1 (SMILES …); assay: as above
T17 construct: also called C12
T17 peptide: {Biotin-AEEA}-EEEETHKIGSLAENAF-NH2
Method: as §1

[18] = target: T18, biotinylated 20 mer peptide 9 from stalk region of TLT-1 (N-terminal bio-Oeg (biotin, 8-amino-3,6-dioxaoctanoic acid spacer)); assay: as above
T18 construct: also called A 9
T18 peptide: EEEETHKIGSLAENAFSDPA
Method: as §1

[19] = target: T19, biotinylated 20 mer peptide 16 from stalk region of TLT-1 (N-terminal bio-Oeg (biotin, 8-amino-3,6-dioxaoctanoic acid spacer)); assay: as above
T19 construct: also called B 4
T19 peptide: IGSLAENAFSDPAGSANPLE
Method: as §1

hTLT-1 ECD-His = target: T20, hTLT-1 ECD-His (human, UniProt Q86YW5 16-162); assay: SPR Biacore, mAb captured via human Fc mAb, TLT-1 as analyte
T20 construct: Extracellular domain of human TLT-1 with C-terminal His-6 tag; the range 16-168 is computed from these; also called TLT-1-His; His tagged human TLT1
T20 sequence: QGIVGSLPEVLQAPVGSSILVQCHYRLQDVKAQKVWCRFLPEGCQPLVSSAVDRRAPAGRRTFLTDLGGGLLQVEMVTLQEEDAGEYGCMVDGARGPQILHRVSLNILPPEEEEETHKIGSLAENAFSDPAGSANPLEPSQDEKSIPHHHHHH
Method: Method: The mAbs of interest were either immobilized directly to a CM5 chip or by capture via a human Fc capture mAb immobilized to a CM5 chip, while TLT-1-His was immobilized by capture via an anti-His mAb CM5 chip for analysis of Fabs.
mAb direct capture: The TLT-1 mAbs were immobilised to a level of approx 500-1000 RU on a CM5 chip (50 μg/ml diluted in Na-acetate, pH 4.0) using the standard procedure recommended by the supplier. Two-fold dilutions of TLT-1 from 200 nM to 0.2 nM were tested for binding to the mAbs. Running and dilution buffer: 10 mM HEPES, 150 mM, 0.005% p20, pH 7.4. Regeneration was obtained by 10 mM Glycine, pH 1.7. mAb capture via human Fc mAb: Human Fc mAb was immobilised to approx 10.000 RU. The mAb of interest was added (approx 100 nM). Two-fold dilutions of TLT-1 from 200 nM to 0.2 nM were tested. Running and dilution buffer: 10 mM HEPES, 150 mM, 0.005% p20, pH 7.4. Regeneration was obtained in 3 M MgCl₂.

hTLT-1.126-162 = target: T21, hTLT-1.126-162 (human); assay: told in the HX-MS example; method not given
T21 construct: Made by solid phase peptide synthesis; not glycosylated; also called TLT-1 stalk peptide; chain P
T21 peptide: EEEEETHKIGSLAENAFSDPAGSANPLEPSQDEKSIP

B1: mAb0061 (antibody, human IgG4 S228P, kappa, V domains shown)
VH: EVKLLESGGGLVQPGGSLKLSCAASGFDFSRYWMTWVRQAPGKGLEWIGEINPDSSTINYNPSLKDKFIISRDNAKNTLYLQMSEVRSEDTALYYCASGVFTSWGQGTLVTVSA
VL: DVVMTQTPLSLPVSLGDQASISCRSSQSLVHRNGNTYFHWALQKPGQSPKLLIYKVSNRFSGVPDRFSGSGSGTDFTLKISRVEAEDLGVYFCSQSTHVPYTFGGGTKLEIKR
notes: Mouse VH/VL, human IgG4 / kappa; variant of mAb0012 (HC T60N, LC C36A, Kabat); also called antiTLT-1 0061mab; (0012HC.T60N)2
absorbance at 450 nm [1]: > 3
absorbance at 450 nm [2]: > 3
absorbance at 450 nm [3]: > 3
absorbance at 450 nm [4]: > 3
absorbance at 450 nm [5]: > 3
absorbance at 450 nm [6]: > 3
absorbance at 450 nm [7]: > 3
absorbance at 450 nm [8]: > 3
absorbance at 450 nm [9]: > 3
absorbance at 450 nm [10]: > 3
absorbance at 450 nm [11]: > 3
absorbance at 450 nm [12]: > 3
absorbance at 450 nm [13]: > 3
absorbance at 450 nm [14]: > 3
absorbance at 450 nm [15]: > 3
absorbance at 450 nm [16]: > 3
absorbance at 450 nm [17]: > 3
absorbance at 450 nm [18]: > 3
absorbance at 450 nm [19]: > 3
Kd (hTLT-1 ECD-His): 3.75 nM
koff (hTLT-1 ECD-His): 0.0035 s⁻¹
kon (hTLT-1 ECD-His): 932000 M⁻¹ s⁻¹
binding result (hTLT-1.126-162): binds
